In assay [1] the target is T1, recombinant human Tau-412 protein (human, UniProt P10636-7 1-412).
T1 construct: Analyte of the SPR study; also called human tau (1N4R, 412 amino acids)
In words: SPR Biacore T200, Protein A capture, mean of the Chimeric runs. The procedure:
(§1) Kinetic data was obtained at a flow rate of 40 μL/min to minimize any potential mass transfer effects. Two repeats of the blank (no antigen) and the 2.5 nM concentration of the analyte were programmed into the kinetic run in order to check the stability of both the surface and analyte over the kinetic cycles. For the initial kinetic runs, 2-fold dilutions of Tau-412 from 40 nM to 0.156 nM were run. For kinetic analysis and on subsequent runs, an analyte range of 20 nM to 0.625 nM was selected. This range covered multiple analyte concentrations both above and below the reported KD.
(§2) The association phase was monitored for 500 seconds to allow some of the higher concentrations of analyte to reach steady state. In order to observe a sufficient signal decrease (>10%) during the dissociation phase of the kinetic cycle, dissociation was measured for 1200 seconds. As discussed in Section 5, the Fcs were allowed to stabilize for 600 seconds after each regeneration step. The signal from the reference channel Fc1 was subtracted from that of Fc2, Fc3 and Fc4.
(§3) The kinetic parameters for the interaction of Tau-412 with the 7 mAbs as measured using the Protein A capture system on the Biacore T200 are shown in Table F-2. To correct for differences in the capture level of the antibody between each binding cycle, a local Rₘₐₓ parameter was used in the 1-to-1 binding model. Kinetic analysis was performed in three independent runs using fresh preparations of Tau-412 and antibody. Run 1 and runs 2+3 used different vials of the antigen Tau-412; therefore the reported errors associated with the mean response probably represent variation in preparation of the analyte and differences in assay set-up and run. From run 1 to runs 2+3, the amount of antibody injected was adjusted to try to get closer to the target 300 RU capture levels.
In general terms: In SPR one partner is held on a chip, and binding of the other changes the refractive index at the surface.

Assay [2] concerns the target T2, human tau (human, UniProt P10636 2-60).
T2 construct: also called soluble human tau; human tau protein
Nature of the assay: competition ELISA on plate-coated human tau against biotinylated HJ8.5; IC50 normalised to chimeric HJ8.5 (reference row); column C2N Run 1. (An ELISA detects its analyte on a solid surface through an enzyme-linked reagent.)

In assay [3] the target is T1, recombinant human Tau-412 protein. Nature of the assay: SPR Biacore T200, mAb captured on Protein A, Tau-412 analyte, 1-to-1 model, chip A11/2. How it is done: as §1, §2, §3
Assay [4] has the same target. Nature of the assay: SPR Biacore T200, mAb captured on Protein A, Tau-412 analyte, 1-to-1 model, chip A11/1. How it is done:
as §1, §2, §3

For assay [5] the target is unchanged. In words: SPR Biacore T200, mAb captured on Protein A, Tau-412 analyte, 1-to-1 model, chip A11/3. The procedure: as §1, §2, §3
For assay [6], the target named is T2, human tau. In words: competition ELISA on plate-coated human tau against biotinylated HJ8.5; IC50 normalised to chimeric HJ8.5 (reference row); column C2N Run 2.
For assay [7], the target named is T2, human tau. In words: competition ELISA on plate-coated human tau against biotinylated HJ8.5; IC50 normalised to chimeric HJ8.5 (reference row); column External.
For assay [8], the target named is T3, first 32 amino acids of human tau, expressed on yeast (human, UniProt P10636 1-32).
T3 construct: range 1-32; Yeast display scaffold not described
T3 chain (looked up): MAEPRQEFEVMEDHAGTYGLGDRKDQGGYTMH
In words: yeast display, immunofluorescence. How it is done: The epitope was mapped using yeast display. For this method, various peptides covering the sequence of human tau were expressed using by yeast. Binding of the HJ8.5 antibody to yeast in culture was measured by immunofluorescence. Binding to yeast, expressing variants of tau that included the first 34 amino acids was observed, but no binding, if the yeast only expressed the first 32 amino acids of tau.

Assay [9] concerns the target T2, human tau. Nature of the assay: competition ELISA on plate-coated human tau against biotinylated HJ8.5; IC50 normalised to chimeric HJ8.5; column C2N Run 1.
The target in assay [10] is T4, rhesus monkey tau (rhesus monkey, UniProt P57786 2-60).
T4 construct: also called rhesus tau
T4 sequence: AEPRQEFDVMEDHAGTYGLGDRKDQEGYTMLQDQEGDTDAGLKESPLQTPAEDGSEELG
In words: direct ELISA on 96-well plates coated with tau at varied concentration; OD 650nm. The procedure:
FIG. 10 illustrates the binding results for different anti human tau antibodies to either human or rhesus monkey tau. Murine anti human tau antibodies HJ8.5 and HJ8.7 alongside humanized variant VH1/VK2 (also referred to as C₂N-8E12) were tested. […] In order to determine whether these amino acid difference between the two species of tau, impacts the ability of antibodies HJ8.5/C₂N-8E12 to bind the following experiment was performed. Binding of C₂N-8E12, HJ8.5 (murine precursor of C₂N-8E12), and HJ8.7 (murine anti-human tau antibody that binds to an epitope of tau where the human and rhesus amino acid sequence is 100% conserved) to human and rhesus tau by coating 96 well ELISA plates with either human or rhesus tau at various concentrations was measured. […] As expected, HJ8.7 binds to both human and rhesus tau.

For assay [11], the target named is T5, PEP_2875817.
T5 peptide: GDRKDQGGYAAHQDQ
Nature of the assay: peptide array of 15-mers of human tau probed with the antibody; label LIN.AA (double alanine).

Assay [12] deals with T6, PEP_2875809.
T6 peptide: TYGLGDRKDAAGYTM
The assay is described as above.

For assay [13], the target named is T7, PEP_2875823.
T7 peptide: KDQGGYTMHAAQEGD
The assay is described as above.

For assay [14], the target named is T8, PEP_2875827.
T8 peptide: QGGYTMHQDAAGDTD
The assay is described as above.

In assay [15] the target is T9, PEP_2875821.
T9 peptide: RKDQGGYTMAADQEG
The assay is described as above.

Assay [16] has as its target T10, PEP_2875819.
T10 peptide: DRKDQGGYTAAQDQE
Described as above.

Assay [17] deals with T11, PEP_2875825.
T11 peptide: DQGGYTMHQAAEGDT
The description is as above.

The target of assay [18] is T12, PEP_2875811.
T12 peptide: YGLGDRKDQAAYTMH
The assay is described as above.

Assay [19] addresses T2, human tau. Nature of the assay: competition ELISA on plate-coated human tau against biotinylated HJ8.5; IC50 normalised to chimeric HJ8.5; column External.
The target of assay [20] is T2, human tau. Nature of the assay: competition ELISA on plate-coated human tau against biotinylated HJ8.5; IC50 normalised to chimeric HJ8.5; column C2N Run 2.
Assay [21] addresses T13, PEP_2875818.
T13 peptide: DRKDQGGYTMHQDQE
In words: peptide array of 15-mers of human tau probed with the antibody; label LIN.

The target of assay [22] is T14, PEP_2875808.
T14 peptide: TYGLGDRKDQGGYTM
The assay is described as above.

For assay [23], the target named is T15, PEP_2875812.
T15 peptide: GLGDRKDQGGYTMHQ
Described as above.

In assay [24] the target is T16, PEP_2875822.
T16 peptide: KDQGGYTMHQDQEGD
The assay is described as above.

The target of assay [25] is T17, PEP_2875806.
T17 peptide: GTYGLGDRKDQGGYT
Described as above.

Assay [26] concerns the target T18, PEP_2875820.
T18 peptide: RKDQGGYTMHQDQEG
The description is as above.

Assay [27] deals with T19, PEP_2875826.
T19 peptide: QGGYTMHQDQEGDTD
The assay is described as above.

Assay [28] addresses T20, PEP_2875804.
T20 peptide: AGTYGLGDRKDQGGY
The description is as above.

The target in assay [29] is T21, PEP_2875810.
T21 peptide: YGLGDRKDQGGYTMH
The description is as above.

Assay [30] has as its target T22, PEP_2875814.
T22 peptide: LGDRKDQGGYTMHQD
The description is as above.

Assay [31] addresses T23, PEP_2875824.
T23 peptide: DQGGYTMHQDQEGDT
The description is as above.

Assay [32] concerns the target T24, PEP_2875816.
T24 peptide: GDRKDQGGYTMHQDQ
The description is as above.

The target in assay [33] is T1, recombinant human Tau-412 protein. In words: SPR Biacore T200, Protein A capture, mean of the VH3/VK3 runs. How it is done: as §1, §2, §3

Consider three molecules from patent US20180371066A1 (C2N DIAGNOSTICS, published 2018).

T2 sequence (P10636 2-60 limits assumed): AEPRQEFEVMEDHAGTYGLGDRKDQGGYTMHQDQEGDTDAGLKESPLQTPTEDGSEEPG

B1: chimeric HJ8.5 monoclonal antibody (antibody, V domains shown)
VH: EVKVEESGGGLVQPGGSMKLSCVVSGFTFSNYWVNWVRQSPEKGLEWVAQIRLKSDNYATHYEESVKGRFTISRDDSKSSVYLQMNNLRAEDSGIYYCTNWEDYWGQGTTLTVSS
VL: DIVLTQSPASLAVSLGQRATISCRASQSVSTSRYSYIHWYQQKPGQPPKLLIKYASNLESGVPARFSGSGSGTDFTLNIHPLEEEDAATYYCHHSWEIPLTFGAGTKLELK
notes: also called chimera; chimeric antibody
B1: the Kd in assay [1] amounted to 1.99 nM; in assay [3], 1.79 nM; in assay [4] it was 2.23 nM; in assay [5], 1.94 nM. Also, the koff is 0.00143 s⁻¹ in assay [1], 0.0013 s⁻¹ in [3], 0.0016 s⁻¹ in assay [4] and 0.0014 s⁻¹ in assay [5]. The kon came to 721000 M⁻¹ s⁻¹ in assay [1], 722000 M⁻¹ s⁻¹ in assay [3], 718000 M⁻¹ s⁻¹ in [4] and 723000 M⁻¹ s⁻¹ in assay [5]. In addition, the “IC50 (Relative to Chimera)” value in assay [2], in assay [6] and in assay [7] was 1 relative to Chimera each time.

B2: murine anti-tau antibody HJ8.5 (antibody, V domains shown)
VH: B1 VH
VL: B1 VL
notes: Murine monoclonal antibody; also called parent antibody; murine parent
With B2, the binding result in [8] and in assay [10] was “no binding” in each case. For the same molecule, the “IC50 (Relative to Chimera)” value in [9] was 0.79 relative to Chimera; in assay [19], 1.07 relative to Chimera; in [20] it was 0.99 relative to Chimera. Moreover, the “Binding Signal” value is 2640 in [11]; 2810 in assay [12]; 2710 in assay [13]; 427 in assay [14]; 2710 in [15]; 2700 in assay [16]. Further, the “Binding Signal” value came out at 2710 in assay [17]; 1780 in [18]; 2690 in [21]; 2640 in assay [22]; 2820 in assay [23]; 2700 in assay [24]. Besides, the “Binding Signal” value in assay [25] amounted to 2640; in assay [26] it was 2700; in assay [27], 399; in assay [28], 427; in assay [29], 2840; in [30] it was 2840. The “Binding Signal” value in assay [31] is 2680; in [32], 2650.

B3: VH3/VK3 humanized anti-tau antibody (antibody, human IgG4 S228P, kappa)
heavy: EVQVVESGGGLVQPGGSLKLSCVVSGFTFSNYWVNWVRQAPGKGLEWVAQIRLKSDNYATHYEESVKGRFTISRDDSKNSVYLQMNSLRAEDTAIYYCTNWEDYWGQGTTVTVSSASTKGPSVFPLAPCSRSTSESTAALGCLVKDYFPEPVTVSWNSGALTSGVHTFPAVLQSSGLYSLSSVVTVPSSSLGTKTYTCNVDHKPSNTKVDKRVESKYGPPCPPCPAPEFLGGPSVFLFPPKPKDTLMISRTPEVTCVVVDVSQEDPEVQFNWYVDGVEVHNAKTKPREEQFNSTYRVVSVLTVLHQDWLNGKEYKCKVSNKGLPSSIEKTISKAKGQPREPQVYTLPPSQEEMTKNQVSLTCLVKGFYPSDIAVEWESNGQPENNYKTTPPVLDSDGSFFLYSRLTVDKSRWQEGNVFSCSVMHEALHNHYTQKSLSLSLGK
light: DIVLTQSPDSLAVSLGERATISCRASQSVSTSRYSYIHWYQQKPGQPPKLLIKYASNLESGVPSRFSGSGSGTDFTLTISSLQPEDFATYYCHHSWEIPLTFGQGTKLEIKRTVAAPSVFIFPPSDEQLKSGTASVVCLLNNFYPREAKVQWKVDNALQSGNSQESVTEQDSKDSTYSLSSTLTLSKADYEKHKVYACEVTHQGLSSPVTKSFNRGEC
notes: Humanized variant of HJ8.5
As to B3, the Kd was determined as 1.92 nM in assay [33], 1.65 nM in [3] and 2.2 nM in assay [4]. Further, the values for the koff in assay [33], in [3] and in assay [4] were 0.000507 s⁻¹, 0.000454 s⁻¹ and 0.000559 s⁻¹, respectively. For the same molecule, the values for the kon in assay [33], in assay [3] and in assay [4] were 265000 M⁻¹ s⁻¹, 276000 M⁻¹ s⁻¹ and 254000 M⁻¹ s⁻¹, respectively. For the same molecule, the results for the “IC50 (Relative to Chimera)” value in [9], in assay [19] and in assay [20] were 0.84 relative to Chimera, 0.93 relative to Chimera and 1.34 relative to Chimera, respectively.

Broadly, the Kd is the constant that tells how readily two partners part at equilibrium. For orientation: koff means the rate constant with which the complex falls apart. A word on the kon: it is a measure of how fast the partners come together.
